Data taken from patent US20240076386.
Changes are numbered by the printed parent chain.

B1: optimized anti-E-selectin antibody 1282 (protein)
chain 1: EVQLVESGGGLVQPGGSLRLSCAASGYAIRSAYMHWVRQAPGKGLEWVARIDPANGNTIYVDSVEGRFTISADNAKNSAYLQMNSLRAEDTAVYYCAMDLYSTSEYWGQGTLVTVSSASTKGPSVFPLAPSSKSTSGGTAALGCLVKDYFPEPVTVSWNSGALTSGVHTFPAVLQSSGLYSLSSVVTVPSSSLGTQTYICNVNHKPSNTKVDKKVEPKSCDKTHTCPPCPAPEAAGAPSVFLFPPKPKDTLMISRTPEVTCVVVDVSHEDPEVKFNWYVDGVEVHNAKTKPREEQYNSTYRVVSVLTVLHQDWLNGKEYKCKVSNKALPAPIEKTISKAKGQPREPQVYTLPPSREEMTKNQVSLTCLVKGFYPSDIAVEWESNGQPENNYKTTPPVLDSDGSFFLYSKLTVDKSRWQQGNVFSCSVMHEALHNHYTQKSLSLSPG
chain 2: DIQMTQSPSSLSASVGDRVTITCKTSQNIERYLNWYQQKPGKAPKLLIYAASSLQSGVPSRFSGSGSGTDFTLTISSLQPEDFATYFCLQDNAWPLTFGQGTKVEIKRTVAAPSVFIFPPSDEQLKSGTASVVCLLNNFYPREAKVQWKVDNALQSGNSQESVTEQDSKDSTYSLSSTLTLSKADYEKHKVYACEVTHQGLSSPVTKSFNRGEC
B2: optimized anti-E-selectin antibody 1448 (protein)
chain 1: B1 chain 1 with E65K, G66E
chain 2: B1 chain 2
B3: optimized anti-E-selectin antibody 1284 (protein)
chain 1: B1 chain 1 with D62E
chain 2: B1 chain 2
B4: optimized anti-E-selectin antibody 1444 (protein)
chain 1: B1 chain 1 with E65T
chain 2: B1 chain 2

Test: AC-SINS self-interaction

AC-SINS (wavelength of maximum absorbance relative to blank, nm), 1 nm:
B1, B2, B3, B4
